This is an account of results in publication PMC2699145 (The Journal of Cell Biology, 2009).

The labels stand for the following.
B1: GST fusion protein containing the kinase domain of Src (residues 249-536) (domain or fragment, UniProt P12931 249-536, looked up)
chain: PTSKPQTQGLAKDAWEIPRESLRLEVKLGQGCFGEVWMGTWNGTTRVAIKTLKPGTMSPEAFLQEAQVMKKLRHEKLVQLYAVVSEEPIYIVTEYMSKGSLLDFLKGETGKYLRLPQLVDMAAQIASGMAYVERMNYVHRDLRAANILVGENLVCKVADFGLARLIEDNEYTARQGAKFPIKWTAPEAALYGRFTIKSDVWSFGILLTELTTKGRVPYPGMVNREVLDQVERGYRMPCPPECPESLHDLMCQCWRKEPEERPTFEYLQAFLEDYFTSTEPQYQPGENL
B2: GST-RIL (reversion-induced LIM) (natural protein, human, UniProt P50479 1-330, looked up)
chain: MPHSVTLRGPSPWGFRLVGGRDFSAPLTISRVHAGSKAALAALCPGDLIQAINGESTELMTHLEAQNRIKGCHDHLTLSVSRPEGRSWPSAPDDSKAQAHRIHIDPEIQDGSPTTSRRPSGTGTGPEDGRPSLGSPYGQPPRFPVPHNGSSEATLPAQMSTLHVSPPPSADPARGLPRSRDCRVDLGSEVYRMLREPAEPVAAEPKQSGSFRYLQGMLEAGEGGDWPGPGGPRNLKPTASKLGAPLSGLQGLPECTRCGHGIVGTIVKARDKLYHPECFMCSDCGLNLKQRGYFFLDERLYCESHAKARVKPPEGYDVVAVYPNAKVELV
B3: MBP-tagged RIL (natural protein, human, UniProt P50479 1-330, looked up)
chain: B2 chain

What all share (experiment): pull-down
In the assay “MBP-tagged RIL” the target is B3.
Assay [1] has as its target maltose-binding protein (MBP)-tagged Src protein (UniProt P12931 1-536).
Assay [2] addresses pY419 Src (MBP-Src phosphorylated at Y419) (UniProt P12931 1-536, phosphotyrosine at 419).
The target in another assay is GST-tagged Src (UniProt P12931 1-536).

Turning to B1, the binding result with MBP-tagged RIL is listed as “binds”.

B2: the binding result in assay [1] and in assay [2] was “binds” in each case.

As to B3, in the assay with GST-tagged Src, the binding result is “binds”.
